Experimental data: the supplement of paper PMC10567573

B1: ZNF449 (parent)
chain: FQEYDTDCEVFRQRFRQFQYREAA
B2: ZNF649 (parent)
chain: YHTGKTPFVCPECGQPCSQKSGLI

Variants of: B1
Test: protein stability index of a GFP-peptide fusion (GPS, HEK-293T) (PSI 1-6); higher = more stable
Conditions: c terminus: a fixed tail appended
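Also: lentivirally expressed fusions sorted by FACS into six bins by GFP to DsRed ratio, PSI derived from sequencing read proportions per bin multiplied by bin number.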

Protein stability index: each site, then its substitutions
F15: A 3.02 | K 2.22 | L 2.42 | N 2.88 | W 2.62 | M 2.84 | C 2.83 | D 3.43 | P 3 | H 3.33 | E 2.92 | T 2.66 | Q 3.01 | V 2.98 | G 2.85 | R 2.76 | S 2.57 | Y 2.17 | I 2.44
E22: P 1.72 | M 1.83 | G 2.35 | D 2.91 | L 2.22 | A 2.43 | C 2.39 | R 1.65 | Q 2.17 | V 2.12 | K 2.75 | N 2.39 | T 2.62 | I 1.99 | F 2.69 | Y 1.95 | S 2.07 | H 2.36
A23: P 2.39 | W 1.61 | Y 1.95 | C 2.65 | Q 2.89 | I 1.7 | M 2.43 | S 2.11 | E 3.28 | L 2.51 | N 2.7 | F 2.15 | R 2.97 | K 3.31 | V 2.15 | T 2.47 | D 2.73 | H 2.54
F18: D 1.79 | M 3.07 | C 1.96 | S 2.1 | Q 3.56 | E 2.95 | G 2.4 | I 2.86 | Y 2.59 | P 2.43 | R 2.43 | K 1.76 | N 2.38 | W 3.11 | L 4.05 | T 3.11 | A 3.02 | H 2.4
Y20: Q 3.73 | L 2.83 | V 3.27 | S 3.15 | C 2.2 | T 3.46 | K 3.21 | D 3.49 | G 3.31 | M 3.03 | A 3.12 | W 1.47 | F 2.57 | R 2.88 | P 2.81 | I 3.37 | E 3.52 | N 3.48 | H 3.27
Q19: N 2.29 | T 2.3 | W 2.35 | E 2.35 | C 2.02 | S 2.11 | G 2.67 | P 2.16 | R 2.65 | K 2.44 | I 2.53 | H 2.6 | M 2 | F 1.87 | Y 2.22 | D 2.18 | A 2.81 | V 2.48
R16: Q 2.78 | D 2.6 | T 2.28 | K 2.98 | P 2.11 | I 2.31 | S 2.21 | A 2.51 | G 2.44 | N 2.46 | L 2.59 | M 3.38 | C 2.07 | Y 2.4 | H 1.98 | V 2.44 | F 2.44 | E 2.27 | W 2.2
R14: Q 2.32 | L 2.37 | I 1.9 | H 2.76 | N 2.62 | P 1.8 | T 2.75 | M 3.51 | W 2.36 | G 2.67 | F 2.01 | K 3.16 | S 2.29 | V 1.65 | Y 2.35
A24: C 2.96 | R 3.04 | I 2.08 | G 2.51 | V 2.13 | T 2.35 | W 1.93 | S 2.55 | M 2.13 | E 2.95 | K 2.76 | N 2.65 | Q 3.13 | F 2.13 | Y 2.33 | D 2.8 | L 2.64 | P 2.77 | H 1.96
Q17: H 2.44 | T 2.51 | F 1.71 | C 2 | D 3.13 | N 2.44 | W 2.17 | V 2.3 | I 2.6 | E 2.85 | K 2.42 | G 2.22 | R 2.31 | A 2.67 | Y 2.86 | M 2.7 | L 2.75 | S 2.39 | P 1.97
R21: E 3.16 | I 2.71 | T 2.86 | Q 2.96 | A 2.44 | H 2.53 | C 2.92 | Y 2.54 | L 1.91 | N 2.62 | V 2.51 | G 3.14 | D 3.13 | F 2.91 | K 2.65 | S 2.77 | W 1.75 | P 2.44 | M 2.69

Variants of: B2
Test: as above
Conditions: c terminus: a fixed tail appended

Protein stability index, by site and new letter:
G4: I 1.69 | L 2.41 | M 1.89 | E 2.89 | A 1.49 | Y 1.69 | N 1.67 | V 2.88 | F 2.36 | R 1.62 | T 2.62 | C 2.49 | D 2.48 | P 1.83 | H 1.96 | K 2.18 | Q 1.51
T3: L 1.76 | A 2.57 | V 2.46 | W 1.48 | E 2.85 | N 2.03 | D 2.68 | P 1.61 | K 2.87 | Y 1.27 | R 2.23 | I 1.56 | C 2.38 | H 2.78
Y1: A 3.92 | L 2.51 | C 3.52 | V 3.5 | R 2.69 | K 2.72 | Q 2.47 | H 3.46 | N 3.08 | G 3.8 | E 3.71 | I 2.69 | P 3.28 | S 3.72 | D 3.98 | W 2.48 | T 3.06 | M 1.65
V9: A 3.38 | D 2.39
H2: V 1.96 | I 2.36 | K 2.76 | A 1.99 | P 2.15 | Q 2.28 | M 2.51 | Y 2.42 | G 1.98 | D 3.69 | L 2.2 | W 2.06 | F 2.25 | R 2.1 | N 2.39 | E 3.55
F8: L 2.1 | G 1.8 | I 2.24 | K 1.82 | T 1.67 | P 2.46 | A 1.84 | D 2.17 | E 2.52 | C 1.83 | R 2.09 | Q 2.69 | M 1.62 | V 1.78 | S 2.15 | Y 1.54 | N 2.16 | H 2.41
T6: H 2.91 | C 1.45 | L 2.21 | E 2.89 | S 1.53 | M 1.68 | A 2.07 | N 2.89 | G 1.71 | I 2.22 | P 2.19 | D 1.92 | K 1.79 | V 1.65 | W 1.96 | Q 2.96 | F 2.42
K5: F 1.88 | Y 3.06 | M 2.44 | S 2.62 | D 1.77 | G 2.54 | W 2.1 | L 2 | N 1.81 | A 1.62 | H 1.86 | E 2.16 | R 2 | Q 1.86 | P 2.66 | T 1.13
P7: D 2.05 | S 1.6 | E 1.44 | L 2.12 | Q 1.77 | N 1.98 | R 1.03 | H 3.19 | T 2.52 | I 1.76 | M 1.22 | G 2.05 | A 1.73 | C 2.26 | W 2.04
